These results are taken from patent US20120015890A1 (ARGOS THERAPEUTICS, published 2012).

Series [1] deals with the molecule itself. The series can be described thus: SDS-PAGE with and without 2-mercaptoethanol; band at about 25 kDa without reducing agent. As for the experimental part: The HPLC-purified recombinant human CD83ext protein (cloning and expression as described in example 1, purification as described in example 2 was analysed with the Laemmli SDS-PAGE system. To identify possible oligomeric forms of CD83 2-mercaptoethanol (ME) has been omitted from the sample buffer (2% SDS, 5% 2-Mercaptoethanol (ME), 10% Glycerol, 0.2 mM EDTA, 0.005% bromphenolblue, 62.5 mM Tris pH6.8). In the absence of this reducing agent, the intra- and interchain disulfide bonds of CD83 remain intact. The reduced and non-reduced protein samples were both incubated for 5 min at 95° C. and compared with each other by SDS-PAGE (see FIG. 7). During electrophoresis, the mobilities of oligomeric SDS-proteins is lower than those of their fully denatured SDS-polypeptide components. Without ME an upper band appears at the estimated size of a CD83-dimer (about 25 kDa), while the monomeric CD83 band (about 14 kDa) is fainting. Westernblot analysis using the anti-CD83 antibody CD83-1G11 (Lechmann et al., Protein Expression and Purification 24:445-452 (Mar. 2, 2002)) confirmed the specificity of the protein bands. Thus, hCD83ext is a disulfide-linked homodimeric protein.

Series [2] concerns the molecule itself. Briefly: SDS-PAGE with and without 2-mercaptoethanol. The text has this:
The purified hCD83ext_mut129_Cys to Ser was compared to purified hCD83ext by SDS-PAGE (see FIG. 9). […] Under non-reducing conditions no CD83-dimer could be detected with the mutant CD83 protein. So the 5th carboxyterminal cysteine of the extracellular CD83 domain is necessary for the creation of homodimers. Westernblot analysis confirmed specificity of the bands (data not shown).

B1: recombinant human CD83ext protein (soluble extracellular domain of human CD83) (receptor)
chain: GSPGTPEVKVACSEDVDLPCTAPWDPQVPYTVSWVKLLEGGEERMETPQEDHLRGQHYHQKGQNGSFDAPNERPYSLKIRNTTSCNSGTYRCTLQDPDGQRNLSGKVILRVTGCPAQRKEETFKKYRAEI
notes: Expressed in E. coli as a GST fusion and cleaved with thrombin; also called hCD83ext; soluble CD83
Consider B1, for which the binding result in series [1] is given as “binds”.

B2: hCD83ext_mut129_Cys to Ser (receptor)
chain: GSPGTPEVKVACSEDVDLPCTAPWDPQVPYTVSWVKLLEGGEERMETPQEDHLRGQHYHQKGQNGSFDAPNERPYSLKIRNTTSCNSGTYRCTLQDPDGQRNLSGKVILRVTGSPAQRKEETFKKYRAEI
notes: Expressed in E. coli as a GST fusion and cleaved with thrombin; Monomeric; also called hCD83ext mut129 Cys to Ser mutant
Turning to B2, in series [2], the binding result is listed as “no binding”.
